Assay results from publication PMC13397619.

B1: NLV3 TCR beta chain (CDR3β only) (parent)
chain: ASSPTGGSPSPLH
partner: MLVPMVATV
B2: NLV3 TCR beta chain (CDR3β only) (parent)
chain: ASSPTGGSPSPLH
partner: NLCPMVATV

Variants of: B1
Experiment: T-Switch: Jurkat TCRβ−/− cells expressing a CDR3 saturation-mutagenesis library, stained with two peptide-HLA-A*02:01 tetramers (original and novel peptide) plus anti-CD3, FACS-sorted into four gates, gDNA sequenced
Conditions: with HLA-A*02:01 with peptide … (NLV 3-1, the original bait), tetramers 1 µg/mL, 30 min on ice, DP and SW gates expanded about 10 days between rounds ('two to three rounds of selection' in the Methods), gate SP: higher = more of the variant in the gate that binds the original peptide and not the novel one = retained original binding. Fold enrichment of the CDR3 variant in one FACS gate of a two-tetra, unresolved parent, parent is a CDR3 fragment, scale: fold enrichment, numbering: sequential-on-construct, sequence …
[…] (CDR3 as printed); H13C derived by comparing it with the table's wild-type CDR3 ASSPTGGSPSPLH was tested, and the enrichment was 6.06.
For […] (CDR3 as printed); H13V derived by comparing it with the table's wild-type CDR3 ASSPTGGSPSPLH, the enrichment was 5.71.
[…] (CDR3 as printed); G7S derived by comparing it with the table's wild-type CDR3 ASSPTGGSPSPLH was tested, and the enrichment was 0.
Variant […] (CDR3 as printed); H13F derived by comparing it with the table's wild-type CDR3 ASSPTGGSPSPLH has an enrichment of 4.3.
In the case of […] (CDR3 as printed); H13K derived by comparing it with the table's wild-type CDR3 ASSPTGGSPSPLH, the enrichment is reported as 3.5.
For […] (CDR3 as printed); G6W derived by comparing it with the table's wild-type CDR3 ASSPTGGSPSPLH, the enrichment was 0.
With […] (CDR3 as printed); A1G derived by comparing it with the table's wild-type CDR3 ASSPTGGSPSPLH the enrichment was 5.7.
For […] (CDR3 as printed); H13T derived by comparing it with the table's wild-type CDR3 ASSPTGGSPSPLH, the enrichment was 5.47.
Variant […] (CDR3 as printed); G7R derived by comparing it with the table's wild-type CDR3 ASSPTGGSPSPLH has an enrichment of 0.
Variant […] (CDR3 as printed); G6A derived by comparing it with the table's wild-type CDR3 ASSPTGGSPSPLH has an enrichment of 8.12.
[…] (CDR3 as printed); G6E derived by comparing it with the table's wild-type CDR3 ASSPTGGSPSPLH showed an enrichment of 0.
In the case of […] (CDR3 as printed); G6I derived by comparing it with the table's wild-type CDR3 ASSPTGGSPSPLH, the enrichment is reported as 0.
Work on […] (CDR3 as printed); G7L derived by comparing it with the table's wild-type CDR3 ASSPTGGSPSPLH yielded an enrichment of 0.
Work on […] (CDR3 as printed); H13A derived by comparing it with the table's wild-type CDR3 ASSPTGGSPSPLH yielded an enrichment of 6.12.
Variant […] (CDR3 as printed); G6D derived by comparing it with the table's wild-type CDR3 ASSPTGGSPSPLH has an enrichment of 0.39.

Variants of: B2
Experiment: as above
Conditions: with HLA-A*02:01 with peptide … (NLV 2-1, the novel peptide), tetramers 1 µg/mL, 30 min on ice, SP, DP and SW gates expanded about 10 days between rounds ('two to three rounds of selection' in the Methods), gate SW: higher = more of the variant in the gate that binds the novel peptide and not the original one = switched binding. Fold enrichment of the CDR3 variant in one FACS gate of a two-tetramer stain, unresolved parent, parent is a CDR3 fragment, scale: fold enrichment, numbering: sequential-on-construct, sequence starts at 1
[…] (CDR3 as printed); L12K derived by comparing it with the table's wild-type CDR3 ASSPTGGSPSPLH was tested, and the enrichment was 0.
In the case of […] (CDR3 as printed); S3F derived by comparing it with the table's wild-type CDR3 ASSPTGGSPSPLH, the enrichment is reported as 0.
For […] (CDR3 as printed); P4N derived by comparing it with the table's wild-type CDR3 ASSPTGGSPSPLH, the enrichment was 0.
Work on […] (CDR3 as printed); P4K derived by comparing it with the table's wild-type CDR3 ASSPTGGSPSPLH yielded an enrichment of 0.
Variant […] (CDR3 as printed); G6P derived by comparing it with the table's wild-type CDR3 ASSPTGGSPSPLH has an enrichment of 0.
[…] (CDR3 as printed); L12E derived by comparing it with the table's wild-type CDR3 ASSPTGGSPSPLH showed an enrichment of 0.
Work on […] (CDR3 as printed); P11L derived by comparing it with the table's wild-type CDR3 ASSPTGGSPSPLH yielded an enrichment of 0.
[…] (CDR3 as printed); G6D derived by comparing it with the table's wild-type CDR3 ASSPTGGSPSPLH gave an enrichment of 0.
[…] (CDR3 as printed); S2G derived by comparing it with the table's wild-type CDR3 ASSPTGGSPSPLH showed an enrichment of 0.
For […] (CDR3 as printed); G7F derived by comparing it with the table's wild-type CDR3 ASSPTGGSPSPLH, the enrichment was 0.
Variant […] (CDR3 as printed); T5P derived by comparing it with the table's wild-type CDR3 ASSPTGGSPSPLH has an enrichment of 0.
[…] (CDR3 as printed); A1T derived by comparing it with the table's wild-type CDR3 ASSPTGGSPSPLH showed an enrichment of 0.
With […] (CDR3 as printed); P4M derived by comparing it with the table's wild-type CDR3 ASSPTGGSPSPLH the enrichment was 0.
Work on […] (CDR3 as printed); H13A derived by comparing it with the table's wild-type CDR3 ASSPTGGSPSPLH yielded an enrichment of 0.
[…] (CDR3 as printed); H13Y derived by comparing it with the table's wild-type CDR3 ASSPTGGSPSPLH gave an enrichment of 0.
Variant […] (CDR3 as printed); S2H derived by comparing it with the table's wild-type CDR3 ASSPTGGSPSPLH has an enrichment of 0.
[…] (CDR3 as printed); P9D derived by comparing it with the table's wild-type CDR3 ASSPTGGSPSPLH was tested, and the enrichment was 0.
[…] (CDR3 as printed); H13C derived by comparing it with the table's wild-type CDR3 ASSPTGGSPSPLH showed an enrichment of 0.
Work on […] (CDR3 as printed); H13E derived by comparing it with the table's wild-type CDR3 ASSPTGGSPSPLH yielded an enrichment of 0.
In the case of […] (CDR3 as printed); G7M derived by comparing it with the table's wild-type CDR3 ASSPTGGSPSPLH, the enrichment is reported as 0.
In the case of […] (CDR3 as printed); T5I derived by comparing it with the table's wild-type CDR3 ASSPTGGSPSPLH, the enrichment is reported as 0.
Variant […] (CDR3 as printed); G7W derived by comparing it with the table's wild-type CDR3 ASSPTGGSPSPLH has an enrichment of 0.
With […] (CDR3 as printed); G7H derived by comparing it with the table's wild-type CDR3 ASSPTGGSPSPLH the enrichment was 0.
[…] (CDR3 as printed); P11N derived by comparing it with the table's wild-type CDR3 ASSPTGGSPSPLH showed an enrichment of 0.
For […] (CDR3 as printed); P9T derived by comparing it with the table's wild-type CDR3 ASSPTGGSPSPLH, the enrichment was 0.
Work on […] (CDR3 as printed); P9M derived by comparing it with the table's wild-type CDR3 ASSPTGGSPSPLH yielded an enrichment of 0.
[…] (CDR3 as printed); P4W derived by comparing it with the table's wild-type CDR3 ASSPTGGSPSPLH gave an enrichment of 0.
With […] (CDR3 as printed); S3E derived by comparing it with the table's wild-type CDR3 ASSPTGGSPSPLH the enrichment was 0.
In the case of […] (CDR3 as printed); S10R derived by comparing it with the table's wild-type CDR3 ASSPTGGSPSPLH, the enrichment is reported as 0.
Work on […] (CDR3 as printed); S10Q derived by comparing it with the table's wild-type CDR3 ASSPTGGSPSPLH yielded an enrichment of 0.
Work on […] (CDR3 as printed); P4L derived by comparing it with the table's wild-type CDR3 ASSPTGGSPSPLH yielded an enrichment of 0.
With […] (CDR3 as printed); A1P derived by comparing it with the table's wild-type CDR3 ASSPTGGSPSPLH the enrichment was 0.
In the case of […] (CDR3 as printed); S3L derived by comparing it with the table's wild-type CDR3 ASSPTGGSPSPLH, the enrichment is reported as 0.
[…] (CDR3 as printed); G6K derived by comparing it with the table's wild-type CDR3 ASSPTGGSPSPLH was tested, and the enrichment was 0.
For […] (CDR3 as printed); G7A derived by comparing it with the table's wild-type CDR3 ASSPTGGSPSPLH, the enrichment was 0.
[…] (CDR3 as printed); T5V derived by comparing it with the table's wild-type CDR3 ASSPTGGSPSPLH was tested, and the enrichment was 0.
With […] (CDR3 as printed); H13S derived by comparing it with the table's wild-type CDR3 ASSPTGGSPSPLH the enrichment was 0.
Variant […] (CDR3 as printed); P9C derived by comparing it with the table's wild-type CDR3 ASSPTGGSPSPLH has an enrichment of 0.
In the case of […] (CDR3 as printed); S8P derived by comparing it with the table's wild-type CDR3 ASSPTGGSPSPLH, the enrichment is reported as 0.
For […] (CDR3 as printed); A1K derived by comparing it with the table's wild-type CDR3 ASSPTGGSPSPLH, the enrichment was 0.
With […] (CDR3 as printed); P9R derived by comparing it with the table's wild-type CDR3 ASSPTGGSPSPLH the enrichment was 0.
[…] (CDR3 as printed); G7N derived by comparing it with the table's wild-type CDR3 ASSPTGGSPSPLH gave an enrichment of 0.
For […] (CDR3 as printed); S10T derived by comparing it with the table's wild-type CDR3 ASSPTGGSPSPLH, the enrichment was 0.
[…] (CDR3 as printed); S10K derived by comparing it with the table's wild-type CDR3 ASSPTGGSPSPLH showed an enrichment of 0.
[…] (CDR3 as printed); S8Q derived by comparing it with the table's wild-type CDR3 ASSPTGGSPSPLH gave an enrichment of 0.
In the case of […] (CDR3 as printed); P4R derived by comparing it with the table's wild-type CDR3 ASSPTGGSPSPLH, the enrichment is reported as 0.
Work on […] (CDR3 as printed); P9Y derived by comparing it with the table's wild-type CDR3 ASSPTGGSPSPLH yielded an enrichment of 0.
With […] (CDR3 as printed); T5C derived by comparing it with the table's wild-type CDR3 ASSPTGGSPSPLH the enrichment was 0.
Work on […] (CDR3 as printed); S2I derived by comparing it with the table's wild-type CDR3 ASSPTGGSPSPLH yielded an enrichment of 0.
[…] (CDR3 as printed); P11T derived by comparing it with the table's wild-type CDR3 ASSPTGGSPSPLH was tested, and the enrichment was 0.
Work on […] (CDR3 as printed); S3V derived by comparing it with the table's wild-type CDR3 ASSPTGGSPSPLH yielded an enrichment of 0.
With […] (CDR3 as printed); A1S derived by comparing it with the table's wild-type CDR3 ASSPTGGSPSPLH the enrichment was 0.
[…] (CDR3 as printed); A1H derived by comparing it with the table's wild-type CDR3 ASSPTGGSPSPLH was tested, and the enrichment was 0.
[…] (CDR3 as printed); L12S derived by comparing it with the table's wild-type CDR3 ASSPTGGSPSPLH was tested, and the enrichment was 0.
Variant […] (CDR3 as printed); P9A derived by comparing it with the table's wild-type CDR3 ASSPTGGSPSPLH has an enrichment of 0.
With […] (CDR3 as printed); G7Y derived by comparing it with the table's wild-type CDR3 ASSPTGGSPSPLH the enrichment was 0.
[…] (CDR3 as printed); L12C derived by comparing it with the table's wild-type CDR3 ASSPTGGSPSPLH showed an enrichment of 0.
[…] (CDR3 as printed); L12P derived by comparing it with the table's wild-type CDR3 ASSPTGGSPSPLH showed an enrichment of 0.
[…] (CDR3 as printed); P4E derived by comparing it with the table's wild-type CDR3 ASSPTGGSPSPLH showed an enrichment of 0.
[…] (CDR3 as printed); H13Q derived by comparing it with the table's wild-type CDR3 ASSPTGGSPSPLH showed an enrichment of 0.
[…] (CDR3 as printed); S3Q derived by comparing it with the table's wild-type CDR3 ASSPTGGSPSPLH was tested, and the enrichment was 0.
Variant […] (CDR3 as printed); P11W derived by comparing it with the table's wild-type CDR3 ASSPTGGSPSPLH has an enrichment of 0.
Work on […] (CDR3 as printed); T5N derived by comparing it with the table's wild-type CDR3 ASSPTGGSPSPLH yielded an enrichment of 0.
[…] (CDR3 as printed); P11V derived by comparing it with the table's wild-type CDR3 ASSPTGGSPSPLH showed an enrichment of 0.
Work on […] (CDR3 as printed); A1G derived by comparing it with the table's wild-type CDR3 ASSPTGGSPSPLH yielded an enrichment of 0.
[…] (CDR3 as printed); L12R derived by comparing it with the table's wild-type CDR3 ASSPTGGSPSPLH was tested, and the enrichment was 0.
Variant […] (CDR3 as printed); S10A derived by comparing it with the table's wild-type CDR3 ASSPTGGSPSPLH has an enrichment of 0.
Work on […] (CDR3 as printed); S10G derived by comparing it with the table's wild-type CDR3 ASSPTGGSPSPLH yielded an enrichment of 0.
[…] (CDR3 as printed); H13K derived by comparing it with the table's wild-type CDR3 ASSPTGGSPSPLH was tested, and the enrichment was 0.

Same assay, conditions: with HLA-A*02:01 with peptide … (NLV 2-1, the novel peptide), tetramers 1 µg/mL, 30 min on ice, SP, DP and SW gates expanded about 10 days between rounds ('two to three rounds of selection' in the Methods), gate SW: higher = more of the variant in the gate that binds the novel peptide and not the original one = switched binding. Fold enrichment of the CDR3 variant in one FACS gate of a two-tetramer stain, unresolved parent, parent is a CDR3 fragment, zero in all gates, scale: fold enrichment, numbering: sequential-on-construct, …
Variant […] (CDR3 as printed); G7P derived by comparing it with the table's wild-type CDR3 ASSPTGGSPSPLH has an enrichment of 0.
